Assay [1] has as its target Human FcRn (hFcRn), soluble α-chain/β2m heterodimer (human) (UniProt P55899). Briefly: BLI.
Assay [2] has the same target. Briefly: BLI; hFcRn-loaded surface; human IgG1 as analyte, association at pH 6.0 and dissociation at pH 6.0.
Assay [3] has the same target. Briefly: BLI. This is another data set of the same source. (In general: Biolayer interferometry detects binding as a change in optical thickness at a sensor tip.)
For assay [4], the target named is Human FcRn (hFcRn), soluble α-chain/β2m heterodimer, P55899;P61769. Briefly: BLI (in vitro BLI-based FcRn platform). As to conditions: parent: est. 270; read off a plot.
Assay [5] concerns the target CDA1 (actoxumab), human IgG1 monoclonal antibody (UniProt P01857). Briefly: biolayer interferometry (Octet QK, ForteBio). The note with it: 30°C, PBS (composition and salt concentration not stated), PBS adjusted to pH 6.0 with HCl for the acidic steps, PBS pH 7.5 for the physiological-pH steps.

Like-named read-outs stand apart in the source and are kept apart here.

Chain of Human FcRn (hFcRn), soluble α-chain/β2m heterodimer (human) (P55899 34-290, chain 1 of 2): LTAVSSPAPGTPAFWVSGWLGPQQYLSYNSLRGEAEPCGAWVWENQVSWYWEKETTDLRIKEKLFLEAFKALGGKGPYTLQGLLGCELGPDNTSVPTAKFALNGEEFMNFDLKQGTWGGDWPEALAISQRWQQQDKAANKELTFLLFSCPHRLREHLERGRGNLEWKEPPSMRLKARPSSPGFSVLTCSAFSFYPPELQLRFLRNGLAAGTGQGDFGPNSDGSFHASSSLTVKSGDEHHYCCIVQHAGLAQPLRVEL
Chain of Human FcRn (hFcRn), soluble α-chain/β2m heterodimer (human) (P61769 21-119, chain 2 of 2, further chain): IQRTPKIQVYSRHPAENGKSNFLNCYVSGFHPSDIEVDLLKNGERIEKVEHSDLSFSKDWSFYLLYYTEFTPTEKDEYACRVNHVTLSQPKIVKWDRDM

In the case of “CDA1 (actoxumab), fully human IgG1 mAb (antibody)”, in assay [1], the fold change FcRn binding rate was 1.14 fold, the fold change of the association rate against RAB1 stood at 1.09 fold, the fold change of the dissociation rate against CDB1 stood at 1.18 fold and the koff was determined as 0.0906 s⁻¹. This substance returned a fold slower off-rate at pH 6.0 than at pH 7.5 in assay [2] of 5 fold. The same substance had a koff in assay [3] of 0.101 s⁻¹.
Take “HCV1, fully human IgG1 mAb HCV (with CDA VH CDRs and CDB Vk CDRs): VH CDR1-3 of HCV1 replaced by VH CDRs of CDA1; Vk CDR1-3 of HCV1 replaced by Vk CDRs of CDB1; residues not printed”: the other: Predicted Human t1/2, β in assay [4] is 27.1 days.
On to “soluble human neonatal Fc receptor (hFcRn; alpha-chain/beta2-microglobulin heterodimer)”, for which, in assay [5] (pH 6.0), the “average association rate (apparent kon)” value was determined as 0.2087 ± 0.0036 s⁻¹ and the “kon (apparent association rate)” value is 0.110 s⁻¹. In assay [5] (pH 7.5), the “average dissociation rate (koff)” value was 0.0906 ± 0.0034 s⁻¹ and the koff turned out to be 0.101 s⁻¹.

As a reminder, the koff is the rate constant with which the complex falls apart.

The record behind these values is paper PMC4622054.
